The source of these data is patent US8084213, “Selection” (Domantis Limited).

Series [1] deals with T1, scArc-HA (pIE3 series, single-chain Arc repressor dimer) (Phage P22).
T1 chain: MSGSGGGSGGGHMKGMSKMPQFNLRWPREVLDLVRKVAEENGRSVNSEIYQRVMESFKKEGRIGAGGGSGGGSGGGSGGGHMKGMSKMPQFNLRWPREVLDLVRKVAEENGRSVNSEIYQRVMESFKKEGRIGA
Kind of series: co-capture of DNA on anti-HA 3F10 surface, PCR detection. As to conditions: tags: C-terminal HA; chain copies: 2 scArc per operator (stated). As to the method: In a typical solution expression experiment 1 μl of 1.7 nM template in 0.2 mg/ml tRNA is added to 25 μl EcoPro T7 in vitro translation mix Novagen), supplemented with 0.75 μl of 100 mM oxidized glutathione (Sigma), and incubated at 25° C. for four hours. During the translation reaction the streptavidin-coated PCR tubes, cut from Strep Thermofast 96-well plates (Abgene), are first incubated at room temperature for three hours with 50 μl of at least 40 nM biotinylated target protein in PBS. The coating buffer is thereafter removed and any remaining free biotin-binding sites are blocked with a 15 min pulse of 50 μg/ml biotinylated BSA in PBS. The pre-coated wells are thereafter three times washed with PBS and then filled with 100 μl of binding buffer C+ (100 mM KCl, 20 mM Tris, 5 mM MgCl_2, 0.05% Tween 20, 0.05 mM EDTA, 1% BSA). Upon completion of the translation reaction the products are diluted in Buffer C+ and applied to the pre-coated and blocked PCR tubes, allowed to bind for 30 min at room temperature and washed 4 times with 150 μl of Buffer C+. […]

For a further series, the target named is Vk(E5)-scArc-HA (Phage P22 / human Vk). Kind of series: co-capture PCR; recovered also on beta-galactosidase. To be noted: tags: N-terminal Vk(E5) dAb fusion, C-terminal HA; chain copies: 2 scArc per operator (stated). As to the method: The monoclonal high-affinity α-HA mAb 3F10 recognises the C-terminal HA tag, β-galactosidase and protein L can be expected to interact with the $V_\kappa$(E5) light chain domain, while BSA serves as the negative control. At the end of the incubation the coating solution is removed and the first blocking solution consisting of 150 µl of 10 ng/ml biotinylated BSA (Sigma) in PBS is added to the wells and incubated for 15 minutes. At the end of the incubation the wells are washed three times with 150 µl of PBS and blocked additionally for 30 min at room temperature with buffer C+.
25 µl S30 in vitro translation reactions (EcoPro T7, Novagen) are assembled according to the manufacturer's instructions and supplemented with 1.5 µl of 1.7 mM PCR-amplified template in 0.1 mg/ml RNA and 0.75 µl of 100 mM oxidized glutathione. Translation reactions are incubated at 23° C. for 4 hours and diluted with 150 µl of buffer C+ (10 mM Tris, 100 mM KCl, 0.05% Tween 20, 5 mM MgCl_2, 0.1 mM EDTA, 1% w/v BSA) before being applied in 50 µl aliquots to the pre-coated tubes cut from Strep Thermofast 96-well plates (Advanced Biotech) and allowed to bind for 30 min at room temperature. […]
The PCR amplification products are analysed by 1% agarose gel electrophoresis in TAE in the presence of ethidium bromide and imaged using GeneGeius Bio Imaging System (Syngene). […]

B1: Arc operator, one copy, on linear genetic element (dsDNA)
DNA 1: ATGATAGAAGCACTCTACTAT
DNA 2: ATAGTAGAGTGCTTCTATCAT
Regarding B1, the binding result (in series [1]; with Vk(E5)-scArc-HA) was “binds” each time.
